IntAct's records for PubMed 18469807

What was measured:
[1] = target: unc5b_human UNC5B (UniProt Q8IZJ1)
[2] = target: unc5b_human UNC5B (UniProt Q8IZJ1); remark: listed apart in the source

Sequence of unc5b_human UNC5B (Q8IZJ1 whole entry): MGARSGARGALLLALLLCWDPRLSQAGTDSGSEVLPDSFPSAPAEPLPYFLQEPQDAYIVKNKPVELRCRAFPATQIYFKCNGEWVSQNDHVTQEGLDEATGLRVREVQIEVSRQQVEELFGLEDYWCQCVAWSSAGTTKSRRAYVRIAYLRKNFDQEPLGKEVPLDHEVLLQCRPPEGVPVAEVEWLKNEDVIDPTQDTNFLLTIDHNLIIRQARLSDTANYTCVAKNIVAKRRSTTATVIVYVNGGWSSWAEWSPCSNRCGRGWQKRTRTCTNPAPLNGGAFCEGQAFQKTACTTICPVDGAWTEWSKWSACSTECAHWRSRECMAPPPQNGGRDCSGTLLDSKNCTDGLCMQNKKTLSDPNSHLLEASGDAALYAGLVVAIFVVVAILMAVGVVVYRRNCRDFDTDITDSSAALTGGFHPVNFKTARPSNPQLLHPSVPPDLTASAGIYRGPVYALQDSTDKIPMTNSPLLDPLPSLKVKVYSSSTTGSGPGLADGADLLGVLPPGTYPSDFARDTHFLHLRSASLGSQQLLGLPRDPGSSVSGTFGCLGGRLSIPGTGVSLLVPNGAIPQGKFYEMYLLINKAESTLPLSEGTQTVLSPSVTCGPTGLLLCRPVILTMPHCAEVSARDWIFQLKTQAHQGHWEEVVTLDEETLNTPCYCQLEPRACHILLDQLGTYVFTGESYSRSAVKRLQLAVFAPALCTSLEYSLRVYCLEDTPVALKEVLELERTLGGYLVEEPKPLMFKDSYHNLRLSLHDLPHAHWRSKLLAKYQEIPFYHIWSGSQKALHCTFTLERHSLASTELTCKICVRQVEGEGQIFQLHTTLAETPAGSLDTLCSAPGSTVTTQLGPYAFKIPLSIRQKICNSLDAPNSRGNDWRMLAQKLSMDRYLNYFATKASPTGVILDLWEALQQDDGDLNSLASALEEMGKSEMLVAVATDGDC

Substance | effect of a mutation on the interaction [1] | effect of a mutation on the interaction [2]
Arf-GAP with GTPase, ANK repeat and PH domain-containing protein 2 (Rattus norvegicus (Rat)), Q8CGU4 K413A;S414N | disrupting interaction | 
Arf-GAP with GTPase, ANK repeat and PH domain-containing protein 2 (Rattus norvegicus (Rat)), Q8CGU4 Y1032F |  | disrupting interaction
Arf-GAP with GTPase, ANK repeat and PH domain-containing protein 2 (Rattus norvegicus (Rat)), Q8CGU4 Y1032F;Y1124F |  | disrupting interaction
Arf-GAP with GTPase, ANK repeat and PH domain-containing protein 2 (Rattus norvegicus (Rat)), Q8CGU4 Y1124F |  | disrupting interaction
